Columns and labels:
Assay in all cases: pull-down binding Z-score (relative to library population); higher = stronger binding
Settings in all cases: RNA library: Library-2
TO-N3 (biotin conjugate) = test system: TO-N3 (biotin conjugate)
How it was run: (§1)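 To score binding, a beads-only signal was subtracted, barcoded replicate probes were averaged with the highest and lowest dropped, and the value was converted to a Z-score using the library mean and standard deviation. The input was 1 μg of Cy5- or Cy3-end-labelled RNA library, heat-folded in phosphate/NaCl/KCl buffer and mixed for 60 min at 25 °C with streptavidin beads carrying 100 pmol of biotin-conjugated small molecule. Bound RNA was eluted in hot SDS and hybridised to a DNA barcode microarray at 55.5 °C for 20 h.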

[1] = test system: TO-3-N3 (biotin conjugate)
How it was run: as §1

[2] = test system: TO-N3-2 (biotin conjugate)
How it was run: as §1

[3] = test system: TO-3-N3-2 (biotin conjugate)
How it was run: as §1

Sequence	pull-down binding Z-score (TO-N3 (biotin conjugate))	pull-down binding Z-score [1]	pull-down binding Z-score [2]	pull-down binding Z-score [3]
UGGGUUGGGUUGGGUUGGGUUGGGUUGGGU [G4_r(UGGGU)6]	7.32	8.7	5.72	10.2
AUAACAAUACUAGAUGGAAUUUCACAGUAUUCACUGAGACUCAUUGAUGCUAUGAUGUUCACAUCUGAUUUGGCUACUAACAAUCUAGUUGU	0.384	0.311	-0.351	0.176
AUGGCUGAUCAAGCUAU [DMSMaPseq_invitro_SARS-CoV-2_Motif_216]	-0.208	-0.238	-0.747	-0.583
UGUACAUCUUCUUUGCAUCAUUUUAUUAUGUAUGGAAAAGUUAUGUGCA [SHAPE_invitro_SARS-CoV-2_Motif_147]	-0.813	-0.791	-0.553	-0.347
CUCUUGAGUGCAUUAAAGACCUUCUAGCACGUGCUGGUAAAGCUUCAUGCACUUUGUCCGAACAACUGGACUUUAUUGACACUAAGAG [SHAPE_invitro_SARS-CoV-2_Multi_69_ComplexLevel_1]	-0.515	-0.706	0.585	-0.197
GCUUUAGUCUACUUCUUGCAGAGUAUAAACUUUGUAAGAAUAAUAAUGAGGC [SHAPE_invitro_SARS-CoV-2_Motif_467]	0.0166	0.0529	-0.561	-0.169
CUCAGAGUAGAAAUUUACAAGAAUUUAAACCCAGGAG [DMSMaPseq_invitro_SARS-CoV-2_Motif_359]	-0.463	-0.646	-0.531	-0.119
AUGUACAUCUUCUUUGCAUCAUUUUAUUAUGUAUGGAAAAGUUAUGUGCAU	-1.36	-1.16	-1.44	-0.603
AUUGUUCAACUUAGUGAAAUUAGUAUGGACAAU	0.606	0.851	-0.828	0.243
GUUCUCUAAACGAAC	-0.364	-0.273	-1.16	-0.742
GUUGACAGGACACGAGUAACUCGUCUAUCUUCUGCAGGCUGCUUACGGUUUCGUCCGUGUUGCAGCCGAUCAUCAGC	0.461	-0.282	1.31	-0.335
GCUAACAAACAUGCUGAUUUUGACACAUGGUUUAGCCAGCGUGGUGGUAGU	0.157	-0.205	0.519	0.101
UGAUGCGUAUUAUGACAUGGUUGGAUAUGGUUGAUACUAGUUUGUCUGGUUUUAAGCUAAAAGACUGUGUUAUGUAUGCAUCA	-0.861	-0.867	-0.569	-0.285
UAGUGAUGAAGUUGCGAGAGACUUGUCACUA	-0.688	-0.736	-0.661	-0.441
UGGGAUAUUGCCCG [IAV_invivo_PB2_1_Motif_20+IAV_invivo_PB2_1_Motif_20]	-0.0714	-0.462	-0.104	-0.289
ACAGUCUGUACCGUCUGCGGUAUGUGGAAAGGUUAUGGCUGU	-0.273	-0.239	0.213	-0.231
CGGAUUCUGAAAGAAGAAUCCG [IAV_invivo_NS1_NEP_8_Motif_5+IAV_invivo_NS1_NEP_8_Motif_5]	0.0717	0.432	-0.902	-0.255
CACUAAAAAGUGGAAAUACCCACAAGUUAAUG	-0.552	-0.634	-0.609	-0.22
GGGACUUAUGAUUAUCCC [IAV_invivo_HA_4_Motif_18+IAV_invivo_HA_4_Motif_18]	-0.122	0.293	-0.911	0.126
UCCGAUUUACAGGA [DMSMaPseq_invitro_SARS-CoV-2_Motif_227]	-0.272	-0.342	-0.256	-0.0117
AAGGUACAGCAGAUACUUACCUG [U1snRNP5ss-22]	-0.213	-0.32	0.0449	0.198
AAGUUUGUUCGCAUUCAACCAGGACAGACUU [DMSMaPseq_invitro_SARS-CoV-2_Motif_187]	1.09	1.1	-0.349	0.0441
CUUCACAUAUGUAUUGUUCUUUUUACCCUCCAGAUGAGGAUGAAGAAGAAGGUGAUUGUGAAG	-0.606	-0.494	-1.19	-0.0402

Sequence	pull-down binding Z-score (TO-N3 (biotin conjugate))	pull-down binding Z-score [1]	pull-down binding Z-score [2]	pull-down binding Z-score [3]
GGUUCACUAUAUGUUAAACCAGGUGGAACC	0.506	0.612	-0.369	0.221
GGGCUCAGAAUAUGACUAUGUCAUAUUCACUCAAACCACUGAAACAGCUC [SHAPE_invitro_SARS-CoV-2_Motif_328]	-0.428	-0.515	-0.4	0.0239
GCUCACCGUGCCCAGUGAGC [IAV_invivo_M1_M2_7_Motif_5+IAV_invivo_M1_M2_7_Motif_5]	0.0761	0.297	-0.587	-0.154
CAUGUGAUCUGCACCUCUGAAGACAUG	0.248	0.111	0.33	0.185
UGAUAAAUUCA [SHAPE_invivo_SARS-CoV-2_Motif_325]	-0.712	-0.376	-1.19	-0.375
GCCAGUUGGAGGC [IAV_invivo_PB1_2_Motif_15+IAV_invivo_PB1_2_Motif_15]	-0.233	-0.0995	0.153	-0.201
CUUUUAUGUCUAUGCUAAUGGAGGUAAAGG [SHAPE_invivo_SARS-CoV-2_Motif_154]	-0.68	-0.524	-0.771	-0.487
CUGCCUAUAUGGAAG	-0.773	-0.492	-0.645	-0.364
CCCUAAGACUAAAAAUGUUACAAAAGAAAAUGACUCUAAAGAGGGUUUUUUCACUUACAUUUGUGGG [DMSMaPseq_invitro_SARS-CoV-2_Motif_371]	-1.03	-0.845	-0.589	-0.271
GAAGUUACAACAACUCUGGAAGAAACUAAGUUCCUCACAGAAAACUUGUUACUUU [DMSMaPseq_invitro_SARS-CoV-2_Motif_72]	-0.304	-0.508	0.97	-0.321
GGUGCUCCCAAGAGGGAAGCU [IAV_invivo_NP_5_Motif_18+IAV_invivo_NP_5_Motif_18]	0.405	-0.0194	0.775	-0.165
GGGCUGUGACCACUGAAGUGGCAUUUGGCCU [IAV_invivo_M1_M2_7_Motif_9+IAV_invivo_M1_M2_7_Motif_9]	-0.176	-0.255	0.272	-0.255
CUGUCCAAGACAUGUGAUCUGCACCUCUGAAGACAUGCUUAACCCUAAUUAUGAAGAUUUACUCAUUCGUAAGUCUAAUCAUAAUUUCUUGGUACAG	-0.347	-0.274	-0.0124	-0.739
UGGCAUGGAAGUCA [DMSMaPseq_invitro_SARS-CoV-2_Motif_525]	-0.262	0.0287	-0.318	-0.289
GUUGUAGACGGUUGUAAUUCAUCAACUUGUAUGAUGUGUUACAAACGUAAUAGAGCAAC	-0.954	-0.88	-0.288	-0.529
CCAGUAUGGUGG [IAV_invivo_PB1_2_Motif_36+IAV_invivo_PB1_2_Motif_36]	-0.423	-0.26	-0.372	-0.471
UGACCAGUCUUCUUACAUCGUUGAUAGUGUUACAGUGAAGAAUGGUUCCAUCCAUCUUUACUUUGAUAAAGCUGGUCA	-0.675	-0.506	-0.863	-0.33
GGUUUGUUGCC [IAV_invivo_PB1_2_Motif_26+IAV_invivo_PB1_2_Motif_26]	-0.146	0.00909	-0.374	-0.261
CACCAAGACUACUUACUGGUG [IAV_invivo_PB1_2_Motif_22+IAV_invivo_PB1_2_Motif_22]	-0.706	-0.338	-1.37	-0.501
GCUGAGGCUUCUAAGAAGCCUCGGC	-1.05	-0.572	-1.43	-0.475
UGGUAUUCUUGCUA	-0.551	-0.297	-0.632	-0.339
AUAAAAUAGAAGAAUUAUUCUAUUCUUAU	-0.62	-0.26	-1.22	-0.288
GCUAUCUAACCUUAACUUGCCUGGUUGUGAUGGU [SHAPE_invivo_SARS-CoV-2_Motif_361]	0.716	0.68	0.466	0.311

Sequence	pull-down binding Z-score (TO-N3 (biotin conjugate))	pull-down binding Z-score [1]	pull-down binding Z-score [2]	pull-down binding Z-score [3]
UGCAUUUCUUACCUAGAGUUUUUAGUGCA [DMSMaPseq_invitro_SARS-CoV-2_Motif_163]	-1.09	-0.82	-1.24	-0.416
GGCUUCAUUUAAUUAUUUGAAGUC	-1.24	-0.867	-1.75	-0.711
GCAAAUUAAUGC	-1.04	-0.689	-1.25	-0.864
GGGACUGAGAAUUAGCUCAUCCU [IAV_invivo_PB2_1_Motif_14+IAV_invivo_PB2_1_Motif_14]	-0.536	-0.573	0.208	-0.318
CUAUACAUUCUUUAAGAGUUUGUGUAG	-0.583	-0.365	-1.28	-0.294
UAUGUCUGAAGCAAAAUGUUGGACUGAGACUGACCUUACUAAAGGACCUCAUGAAUUUUGCUCUCAACAUA	0.246	0.0274	-0.671	-0.402
GCUUGGAGAAAAGC [SHAPE_invitro_SARS-CoV-2_Motif_326]	-0.705	-0.536	-0.491	-0.278
UCCACACGCAAGUUGUGGA	-1.18	-0.719	-1.4	-0.579
GUUGAUUUUUGUGGAAAGGGCUAUCAUCUUAUGUCCUUCCCUCAGUCAGC [SHAPE_invitro_SARS-CoV-2_Motif_447]	-1.18	-1.02	-0.89	-0.325
CUUGGAAAACUUCAAG	-0.471	-0.101	-0.863	-0.265
AAGAAGGUCAAAUCAAUGAUAUGAUUUUAUCUCUUCUU	-0.543	-0.253	-1.06	0.176
ACCUAAAUAGAGGU	-1.22	-0.82	-1.63	-0.686
CUGUUGGUACCAAUUUACCUUUACAGCUAGGUUUUUCUACAGGUGUUAACCUAGUUGCUGUACCUACAG	-1.16	-0.959	-1.02	-0.514
AGUAUGGCUACAUACU [DMSMaPseq_invitro_SARS-CoV-2_Motif_53]	-1.06	-0.637	-1.19	-0.367
ACAUAGCAGUGGUGUUACCCGUGAACUCAUGCGUGAGCUUAACGGAGGGGCAUACACUCGCUAUGU	-0.015	-0.138	0.0437	-0.167
GGUUUAGCUGCUGUUAAUAGUGUCCCUUGGGAUACUAUAGCUAAUUAUGCUAAGCC	0.141	0.621	-0.225	-0.323
GAUGGCUUUCCUUGAGGAAUCCCAUC [IAV_invivo_PB1_2_Motif_6+IAV_invivo_PB1_2_Motif_6]	-1.41	-1.04	-0.986	-0.719
AAGUGCUUUUGUUAAUUUAAAACAAUUACCAUUU [SHAPE_invitro_SARS-CoV-2_Motif_354]	-0.977	-0.729	-0.811	-0.225
GAGUCCUCAUCGGAGGACUU [IAV_invivo_NS1_NEP_8_Motif_11+IAV_invivo_NS1_NEP_8_Motif_11]	-0.729	-0.347	-1.36	-0.368
GUUCUCUAUGAGAAC	0.0284	0.38	-1.47	-0.504
GUCGUUGACAGGACACGAGUAACUCGUCUAUCUUCUGCAGGCUGC [SARS-CoV-2-Conserved-Structured-34_Interval-80-197_Motif_3]	0.831	-0.455	2.14	0.148
AGUCUUGUAGUGCGUUGUUCGUUCUAUGAAGACU	-0.932	-0.733	-1.06	-0.844
